Tested on: His6MBP-MP (TMV movement protein, 30 kDa) (Tobacco mosaic virus)
Assay: EMSA
Conditions: 20 mM Tris-HCl pH 7.5, 35 mM KCl, 3.5 mM MgCl2, 5 U RNaseOUT, 10 ul, 30 min at 4 C; 6% native PAGE at 4 C, RNA blot detection; ssDNA/dsDNA competitors were …

PSTVd WT full-length transcript, folded
K half: 36 nM
